Assay [1] addresses T1, fusion protein glutathione-S-transferase-Bcl-W (UniProt P08515 1-218 = GST; Q92843 1-171).
T1 construct: also called GST-Bcl-W
Kind of assay: fluorescence polarisation, 15 nM fluorescein-peptide, GST-Bcl-W titrated 1 nM to 5 uM. As for the experimental part: (§1) A 15 nM solution of the peptide obtained in Example 1 labelled with fluorescein at the N-terminal end is mixed with a solution containing the fusion protein GST-Bcl-XL or GST-Bcl-W at a concentration varying from 1 nM to 5 μM in a buffer containing Na₂HPO₄ 20 mM pH 7.4, EDTA 1 mM, NaCl 50 mM, pluronic acid F-68 0.05%. The fluorescence polarisation is then measured by the En Vision apparatus (Packard Perkin-Elmer).

The target in assay [2] is T2, fusion protein glutathione-S-transferase-Bcl-XL (UniProt P08515 1-218 = GST; Q07817 1-209).
T2 construct: also called GST-Bcl-XL
T2 sequence (P08515 1-218, tags or fused parts left off): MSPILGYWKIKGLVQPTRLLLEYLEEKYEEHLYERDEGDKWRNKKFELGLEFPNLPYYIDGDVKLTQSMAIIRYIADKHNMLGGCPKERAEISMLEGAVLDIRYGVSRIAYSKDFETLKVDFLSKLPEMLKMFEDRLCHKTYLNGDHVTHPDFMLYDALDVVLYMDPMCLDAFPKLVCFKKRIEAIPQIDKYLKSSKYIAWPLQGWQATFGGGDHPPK
The assay is described as follows: fluorescence polarisation, 15 nM fluorescein-peptide, GST-Bcl-XL titrated 1 nM to 5 uM. As for the experimental part: as §1

Among the data in patent US20060183688A1 (LES LABORATORIES SERVIER, published 2006) are Kd values, retold here.

As a reminder, the Kd is the concentration at which binding is half-saturated. Low values mean higher affinity, high ones lower affinity.

No end group written: not given here. fluorescein = fluorescein label at the N-terminal end

T1 sequence (P08515 1-218, tags or fused parts left off): as above

B1: peptide obtained in Example 1 labelled with fluorescein at the N-terminal end (peptide)
peptide: fluorescein-DTRRSMVFARHLREVGDEFRSR
notes: Used at 15 nM in fluorescence polarisation; also called ID; NO.1
Consider B1, for which the Kd in assay [1] amounted to 411 nM; in assay [2], 215 nM.
